{
  "source": "paper PMC9697189",
  "about": "“Peptide-Based [^68Ga]Ga Labeled PET Tracer for Tumor Imaging by Targeting Tumor-Associated Macrophages” (Pharmaceutics, 2022)",
  "key": {"in vitro": {"assay": "in vitro", "format": "in vitro ADME, bovine", "settings": "serum", "method": "DOTA-M2pep (80 μg) was dissolved in 200 μL of purified water in a small vial. About 200 μL of [^68Ga]GaCl3 (44.4–59.2 MBq) was added, and 1 M sodium acetate buffer was used to adjust the final pH to 4.0–4.5. After incubation in a water bath at 55 °C for 30 min, the radiolabeling reaction was completed, and the mixture was collected. Radio-HPLC was performed to confirm the radiochemical purity of [^68Ga]Ga-DOTA-M2pep. The mobile phase was composed of solvent A, acetonitrile (ACN) solution, and solvent B, 0.1% trifluoroacetic acid (TFA) in water. The gradient solvent system was set up as follows: 0–8 min, 70% A and 30% B; 8–15 min, 100% A and 0% B; 15–17 min, 5% A and 95% B; 17–20 min, 95% A and 5% B at a flow rate of 1.0 mL/min. To investigate the in vitro stability, 3.7 MBq [^68Ga]Ga-DOTA-M2pep (100 μL) was incubated in the same volume of phosphate-buffered saline (PBS, pH = 7.4) or bovine serum at 37 °C, respectively. The radiochemical purity was assessed at 15, 30, 60, and 120 min. All experiments were performed in triplicate."}, "in vivo [1]": {"assay": "in vivo", "design": "species or system C57B/L6 mice", "settings": "male, C57B/L6, mouse, iv, 3.7 MBq, total radioactivity", "method": "(§1) The male C57B/L6 mice (6–8 weeks old, 20–25 g) were purchased from HFK bioscience (Beijing, China) and divided randomly into the experimental and blocking groups. All the studies were approved by the experimental animal ethics committee of Sichuan University and were conducted in compliance with the institutional guidelines for the care and use of laboratory animals. The C57B/L6 mice were injected subcutaneously with 5 × 10^6 B16-F10 cells in 100 µL of PBS into the forelimb of the animals under anesthesia with isoflurane. After 7–10 days, the B16F10 tumor-bearing mice were established and prepared for imaging and biodistribution when xenografts grew to 500–1000 mm^3.\n(§2) PET scans were performed using a micro-PET/CT scanner (Inviscan, IRIS, Paris, France). [^68Ga]Ga-DOTA-M2pep (3.7 MBq) was administered to the B16F10 tumor-bearing mice (n = 4) via the tail vein. At 30 min, 1 h, and 2 h post-injection, the tumor-bearing mice were imaged with the micro-PET/CT scan under anesthesia with 2% isoflurane. Each scan was completed within 15 min. For the blocking scans, B16F10 tumor-bearing mice (n = 3) were pretreated with free M2pep (10 mM) in 100 μL saline by intravenous injection 60 min before administration of [^68Ga]Ga-DOTA-M2pep (3.7 MBq). Micro-PET/CT scans were acquired at 60 min post-injection as described above. The obtained images were reconstructed using three-dimensional ordered-subset expectation maximization (3D OSEM) and then processed using Osirix MD. Regions of interest (ROIs) were manually drawn over the tumor regions and organs, and quantitative analyses were calculated. Immunofluorescence staining was performed 24 h after micro-PET scan to determine the [^68Ga]Ga-DOTA-M2pep targeting efficiency. The harvested tumors were fixed with paraformaldehyde for 24 h, then were frozen and sectioned at 10 μm, followed by treatment with Fitc-M2pep, and staining with M2 TAMs marker PE-CD206 antibody and DAPI."}, "[2]": {"test_system": "B16F10 tumor-bearing mice", "assay": "in vivo", "design": "species or system C57B/L6 mice", "settings": "mouse", "method": "as §1, §2"}, "in vivo [3]": {"assay": "in vivo", "design": "species or system C57B/L6 mice", "settings": "male, C57B/L6, mouse, iv, 1.11 MBq, total radioactivity", "method": "The male C57B/L6 mice (6–8 weeks old, 20–25 g) were purchased from HFK bioscience (Beijing, China) and divided randomly into the experimental and blocking groups. All the studies were approved by the experimental animal ethics committee of Sichuan University and were conducted in compliance with the institutional guidelines for the care and use of laboratory animals. The C57B/L6 mice were injected subcutaneously with 5 × 10^6 B16-F10 cells in 100 µL of PBS into the forelimb of the animals under anesthesia with isoflurane. After 7–10 days, the B16F10 tumor-bearing mice were established and prepared for imaging and biodistribution when xenografts grew to 500–1000 mm^3. The B16F10 tumor-bearing mice (n = 3) were intravenously administered [^68Ga]Ga-DOTA-M2pep (1.11 MBq) for biodistribution studies. At 5, 15, 30, 60 min, and 2 h post-injection, mice were euthanized, and the organs of interest, including the blood, heart, lungs, liver, kidneys, spleen, stomach, intestine, muscle, bone, brain, and tumor, were harvested. The samples were then weighed and counted by an automatic γ-counter (PerkinElmer Wizard, Shelton, CT, USA). In the blocking group, the B16F10 tumor-bearing mice (n = 3) were pretreated with free M2pep (10 mM) in 100 μL saline by intravenous injection 60 min before administration of [^68Ga]Ga-DOTA-M2pep (1.11 MBq). The organs of interest were harvested, weighed, and counted as described above at 60 min post-injection. The percentage of tracer uptake was calculated as the percentage of injected dose per gram of tissue (%ID/g), which was decay-corrected to the start time of counting. The percentage reflected the activity associated with tissues per organ weight per actual injected dose."}},
  "note": "Peptide text beside a SMILES is read from it. * marks the point of attachment. DOTA = O=C(O)CN1CCN(CC(=O)O)CCN(CC(=O)*)CCN(CC(=O)O)CC1",
  "data": [
    {"smiles": "CC(C)[C@H](NC(=O)CNC(=O)[C@H](Cc1c[nH]c2ccccc12)NC(=O)[C@@H]1CCCN1C(=O)[C@H](CC(=O)O)NC(=O)[C@H](CCC(N)=O)NC(=O)[C@H](CCC(=O)O)NC(=O)[C@H](Cc1ccc(O)cc1)NC(=O)CN1CCN(CC(=O)O)CCN(CC(=O)O)CCN(CC(=O)O)CC1)C(=O)N[C@@H](CCCCN)C(=O)N[C@@H](Cc1c[nH]c2ccccc12)C(=O)N[C@@H](Cc1c[nH]c2ccccc12)C(=O)N[C@@H](Cc1ccc(O)cc1)C(=O)O", "note": "[[^68Ga]Ga-DOTA-M2pep, metal not drawn] ({DOTA}-YEQDPWGVKWWY-OH)", "values": [
      {"measurement": "remaining at 2 h, 18.5 MBq/mL", "setting": "in vitro", "value": "> 85", "unit": "%"},
      {"measurement": "tissue to tissue ratio at 0.5 h", "setting": "in vivo [1]", "value": "3.19 ± 0.22"},
      {"measurement": "tissue to tissue ratio at 2 h", "setting": "in vivo [1]", "value": "3.12 ± 0.83"},
      {"measurement": "tissue uptake at 0.5 h", "setting": "in vivo [1]", "value": "2.72 ± 0.07", "unit": "%ID/g"},
      {"measurement": "tissue uptake at 1 h", "setting": "in vivo [1]", "value": "2.93 ± 0.2", "unit": "%ID/g"},
      {"measurement": "tissue uptake at 2 h", "setting": "in vivo [1]", "value": "2.47 ± 0.13", "unit": "%ID/g"},
      {"measurement": "tumor/muscle ratio (PET)", "setting": "[2]", "value": "3.35 ± 0.27"},
      {"measurement": "tissue uptake at 5 min", "setting": "in vivo [3]; blood uptake", "value": "10.5 ± 2.2", "unit": "%ID/g"},
      {"measurement": "tissue uptake at 1 h", "setting": "in vivo [3]; blood uptake", "value": "1.84 ± 0.02", "unit": "%ID/g"},
      {"measurement": "tissue uptake at 5 min", "setting": "in vivo [3]; kidney uptake (peak)", "value": "12.7 ± 3.71", "unit": "%ID/g"},
      {"measurement": "tissue uptake at 1 h", "setting": "in vivo [3]; liver uptake", "value": "0.96 ± 0.02", "unit": "%ID/g"},
      {"measurement": "tissue uptake at 1 h", "setting": "in vivo [3]; tumor uptake", "value": "3.35 ± 0.34", "unit": "%ID/g"},
      {"measurement": "tissue uptake at 2 h", "setting": "in vivo [3]; tumor uptake", "value": "3.12 ± 0.27", "unit": "%ID/g"}
    ]}
  ]
}
